Measurements as given in patent publication US20110070610.

B1: pACSH362 protease (SEQ ID NO:10 tagged HAV18 3C protease) (protein)
chain: MKVILLRDVPKIGKKGEIKEVSDGYARNYLIPRGFAKEYTEGLERAIKHEKEIEKRKKEREREESEKILKELKKRTHVVKVKAGEGGKIFGAVTAATVAEEISKTTGLKLDKRWFKLDKPIKELGEYSLEVSLPGGVKDTIKIRVEREESSSGSGSGSGSTLEIAGLVRKNLVQFGVGEKNGCVRWVMNALGVKDDWLLVPSHAYKFEKDYEMMEFYFNRGGTYYSISAGNVVIQSLDVGFQDVVLMKVPTIPKFRDITEHFIKKGDVPRALNRLATLVTTVNGTPMLISEGPLKMEEKATYVHKKNDGTTVDLTVDQAWRGKGEGLPGMCGGALVSSNQSIQNAILGIHVAGGNSILVAKLVTQEMFQNIDKKIESQ
B2: pACSH307 protease (SEQ ID NO:10 tagged TEV protease) (protein)
chain: MKVILLRDVPKIGKKGEIKEVSDGYARNYLIPRGFAKEYTEGLERAIKHEKEIEKRKKEREREESEKILKELKKRTHVVKVKAGEGGKIFGAVTAATVAEEISKTTGLKLDKRWFKLDKPIKELGEYSLEVSLPGGVKDTIKIRVEREESSSGSSGSSGSSGESLFKGPRDYNPISSTICHLTNESDGHTTSLYGIGFGPFIITNKHLFRRNNGTLLVQSLHGVFKVKNTTTLQQHLIDGRDMIIIRMPKDFPPFPQKLKFREPQREERICLVTTNFQTKSMSSMVSDTSCTFPSSDGIFWKHWIQTKDGQCGSPLVSTRDGFIVGIHSASNFTNTNNYFTSVPKNFMELLTNQEAQQWVSGWRLNADSVLWGGHKVFMVKPEEPFQPVKEATQLMN

Key:
[1] = biological target: T1, pACSH360 fusion protein (S661 peptide with N-terminal SEQ ID NO:19 tag and HAV18 3C cleavage site linker)
T1 chain: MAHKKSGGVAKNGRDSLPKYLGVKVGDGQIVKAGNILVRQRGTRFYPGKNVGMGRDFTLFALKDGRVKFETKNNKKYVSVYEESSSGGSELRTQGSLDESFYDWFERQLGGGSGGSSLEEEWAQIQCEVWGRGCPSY

[2] = biological target: T2, pACSH248 fusion protein (S661 peptide with N-terminal SEQ ID NO:19 tag and TEV cleavage site linker)
T2 chain: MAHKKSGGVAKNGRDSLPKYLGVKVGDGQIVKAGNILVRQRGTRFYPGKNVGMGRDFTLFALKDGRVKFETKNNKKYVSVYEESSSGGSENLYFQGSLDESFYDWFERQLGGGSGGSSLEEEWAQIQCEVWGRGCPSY

Row | Protein | cleavage of fusion protein, LC-MS, 7 hours at 37° C., enzyme to substrate ratio 1:10 or 1:50 [1] | cleavage of fusion protein, LC-MS, 8 hours, enzyme to substrate ratio 1:1 [2]
1 | B1 | A fragment representing the released S661 peptide was observed for both ratios | –
2 | B2 | – | after incubation for 8 hours with an enzyme to substrate ration of 1:1, the major part of the S661 peptide was released from the pACSH248 fusion protein
